Data from patent publication US20250154277A1 (CONCEPT TO MEDICINE BIOTECH, published 2025).

T1: human 5T4-His protein (human, UniProt Q13641 32-355)
T1 construct: also called recombinant 5T4 protein (human 5T4-his tag); human 5T4 protein; not shown: His tag
T1 sequence (looked up): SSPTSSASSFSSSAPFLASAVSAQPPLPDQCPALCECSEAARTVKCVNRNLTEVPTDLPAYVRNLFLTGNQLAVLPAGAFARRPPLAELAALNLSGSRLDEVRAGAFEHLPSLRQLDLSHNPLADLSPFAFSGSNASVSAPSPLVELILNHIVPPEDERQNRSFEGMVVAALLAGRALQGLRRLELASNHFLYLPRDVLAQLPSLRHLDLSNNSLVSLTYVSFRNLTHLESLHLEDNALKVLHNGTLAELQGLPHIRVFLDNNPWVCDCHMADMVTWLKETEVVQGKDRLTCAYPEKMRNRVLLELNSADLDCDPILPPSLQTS

B1: Hu286B4-8 (antibody, V domains shown)
VH: EVQLQESGPGLVKPSDTLSLTCAVSGYSISNNYYWNWIRQPPGKGLEWIGYITYDGSNNYNPSLKNRITMSRDTSKNQFSLKLSSVTAVDTAVYYCARGGGQLRFDYWGQGTTVTVSS
VL: DIQMTQSPSSLSASVGDRVTITCKASQSVSNEVTWYQQKPGKAPKMLIYYASNRYTGVPDRFSGSGYGTDFTFTISSLQPEDIATYYCQQDYSSPWTFGGGTKVEIK
notes: humanized
B2: Hu286B4-13 (antibody, V domains shown)
VH: EVQLQESGPGLVKPSDTLSLTCAVSGYSISNNYYWNWIRQPPGKGLEWMGYITYDGSNNYNPSLKNRITVSRDTSKNQFSLKLSSVTAVDTAVYYCARGGGQLRFDYWGQGTTVTVSS
VL: DIQMTQSPSSLSASVGDRVTITCKASQSVSNEVTWYQQKPGKAPKMLIYYASNRYTGVPDRFSGSGYGTDFTFTISSLQPEDIATYYCQQDYSSPWTFGGGTKVEIK
notes: humanized
B3: Hu286B4-7 (antibody, V domains shown)
VH: EVQLQESGPGLVKPSDTLSLTCAVSGYSISNNYYWNWIRQPPGKGLEWIGYITYDGSNNYNPSLKNRITMSRDTSKNQFSLKLSSVTAVDTAVYYCARGGGQLRFDYWGQGTTVTVSS
VL: DIQMTQSPSSLSASVGDRVTITCKASQSVSNEVTWYQQKPGKAPKMLIYYASNRYTGVPDRFSGSGSGTDFTFTISSLQPEDIATYYCQQDYSSPWTFGGGTKVEIK
notes: humanized
B4: Hu286B4-3 (antibody, V domains shown)
VH: EVQLQESGPGLVKPSDTLSLTCAVSGYSISNNYYWNWIRQPPGKGLEWIGYITYDGSNNYNPSLKNRVTMSRDTSKNQFSLKLSSVTAVDTAVYYCARGGGQLRFDYWGQGTTVTVSS
VL: DIQMTQSPSSLSASVGDRVTITCKASQSVSNEVTWYQQKPGKAPKMLIYYASNRYTGVPDRFSGSGYGTDFTFTISSLQPEDIATYYCQQDYSSPWTFGGGTKVEIK
notes: humanized
B5: Hu286B4-12 (antibody, V domains shown)
VH: EVQLQESGPGLVKPSDTLSLTCAVSGYSISNNYYWNWIRQPPGKGLEWMGYITYDGSNNYNPSLKNRITVSRDTSKNQFSLKLSSVTAVDTAVYYCARGGGQLRFDYWGQGTTVTVSS
VL: DIQMTQSPSSLSASVGDRVTITCKASQSVSNEVTWYQQKPGKAPKMLIYYASNRYTGVPDRFSGSGSGTDFTFTISSLQPEDIATYYCQQDYSSPWTFGGGTKVEIK
notes: humanized
B6: Hu286B4-15 (antibody, V domains shown)
VH: EVQLQESGPGLVKPSDTLSLTCAVSGYSISNNYYWNWIRQPPGKGLEWMGYITYDGSNNYNPSLKNRITVSRDTSKNQFSLKLSSVTAVDTAVYYCARGGGQLRFDYWGQGTTVTVSS
VL: SIVMTQSPSSLSASVGDRVTITCKASQSVSNEVTWYQQKPGKSPKMLIYYASNRYTGVPDRFSGSGYGTDFTFTISSLQPEDIATYFCQQDYSSPWTFGGGTKVEIK
notes: humanized
B7: Hu286B4-4 (antibody, V domains shown)
VH: EVQLQESGPGLVKPSDTLSLTCAVSGYSISNNYYWNWIRQPPGKGLEWIGYITYDGSNNYNPSLKNRVTMSRDTSKNQFSLKLSSVTAVDTAVYYCARGGGQLRFDYWGQGTTVTVSS
VL: DIQMTQSPSSLSASVGDRVTITCKASQSVSNEVTWYQQKPGKSPKMLIYYASNRYTGVPDRFSGSGYGTDFTFTISSLQPEDIATYFCQQDYSSPWTFGGGTKVEIK
notes: humanized
B8: Hu286B4-5 (antibody, V domains shown)
VH: EVQLQESGPGLVKPSDTLSLTCAVSGYSISNNYYWNWIRQPPGKGLEWIGYITYDGSNNYNPSLKNRVTMSRDTSKNQFSLKLSSVTAVDTAVYYCARGGGQLRFDYWGQGTTVTVSS
VL: SIVMTQSPSSLSASVGDRVTITCKASQSVSNEVTWYQQKPGKSPKMLIYYASNRYTGVPDRFSGSGYGTDFTFTISSLQPEDIATYFCQQDYSSPWTFGGGTKVEIK
notes: humanized
B9: Hu286B4-6 (antibody, V domains shown)
VH: EVQLQESGPGLVKPSDTLSLTCAVSGYSISNNYYWNWIRQPPGKGLEWIGYITYDGSNNYNPSLKNRITMSRDTSKNQFSLKLSSVTAVDTAVYYCARGGGQLRFDYWGQGTTVTVSS
VL: DIQMTQSPSSLSASVGDRVTITCKASQSVSNEVTWYQQKPGKAPKLLIYYASNRYTGVPDRFSGSGSGTDFTFTISSLQPEDIATYYCQQDYSSPWTFGGGTKVEIK
notes: humanized
B10: Hu286B4-20 (antibody, V domains shown)
VH: EVQLQESGPGLVKPSDTLSLTCAVSGYSITNNYYWNWIRQPPGKGLEWMGYITYDGSNNYNPSLKNRITVSRDTSKNQFSLKLSSVTAVDTAVYYCTRGGGQLRFDYWGQGTTVTVSS
VL: SIVMTQSPSSLSASVGDRVTITCKASQSVSNEVTWYQQKPGKSPKMLIYYASNRYTGVPDRFSGSGYGTDFTFTISSLQPEDIATYFCQQDYSSPWTFGGGTKVEIK
notes: humanized
B11: Hu286B4-14 (antibody, V domains shown)
VH: EVQLQESGPGLVKPSDTLSLTCAVSGYSISNNYYWNWIRQPPGKGLEWMGYITYDGSNNYNPSLKNRITVSRDTSKNQFSLKLSSVTAVDTAVYYCARGGGQLRFDYWGQGTTVTVSS
VL: DIQMTQSPSSLSASVGDRVTITCKASQSVSNEVTWYQQKPGKSPKMLIYYASNRYTGVPDRFSGSGYGTDFTFTISSLQPEDIATYFCQQDYSSPWTFGGGTKVEIK
notes: humanized
B12: Hu286B4-19 (antibody, V domains shown)
VH: EVQLQESGPGLVKPSDTLSLTCAVSGYSITNNYYWNWIRQPPGKGLEWMGYITYDGSNNYNPSLKNRITVSRDTSKNQFSLKLSSVTAVDTAVYYCTRGGGQLRFDYWGQGTTVTVSS
VL: DIQMTQSPSSLSASVGDRVTITCKASQSVSNEVTWYQQKPGKSPKMLIYYASNRYTGVPDRFSGSGYGTDFTFTISSLQPEDIATYFCQQDYSSPWTFGGGTKVEIK
notes: humanized
B13: Hu286B4-16 (antibody, V domains shown)
VH: EVQLQESGPGLVKPSDTLSLTCAVSGYSITNNYYWNWIRQPPGKGLEWMGYITYDGSNNYNPSLKNRITVSRDTSKNQFSLKLSSVTAVDTAVYYCTRGGGQLRFDYWGQGTTVTVSS
VL: DIQMTQSPSSLSASVGDRVTITCKASQSVSNEVTWYQQKPGKAPKLLIYYASNRYTGVPDRFSGSGSGTDFTFTISSLQPEDIATYYCQQDYSSPWTFGGGTKVEIK
notes: humanized
B14: Hu286B4-11 (antibody, V domains shown)
VH: EVQLQESGPGLVKPSDTLSLTCAVSGYSISNNYYWNWIRQPPGKGLEWMGYITYDGSNNYNPSLKNRITVSRDTSKNQFSLKLSSVTAVDTAVYYCARGGGQLRFDYWGQGTTVTVSS
VL: DIQMTQSPSSLSASVGDRVTITCKASQSVSNEVTWYQQKPGKAPKLLIYYASNRYTGVPDRFSGSGSGTDFTFTISSLQPEDIATYYCQQDYSSPWTFGGGTKVEIK
notes: humanized
B15: Hu286B4-18 (antibody, V domains shown)
VH: EVQLQESGPGLVKPSDTLSLTCAVSGYSITNNYYWNWIRQPPGKGLEWMGYITYDGSNNYNPSLKNRITVSRDTSKNQFSLKLSSVTAVDTAVYYCTRGGGQLRFDYWGQGTTVTVSS
VL: DIQMTQSPSSLSASVGDRVTITCKASQSVSNEVTWYQQKPGKAPKMLIYYASNRYTGVPDRFSGSGYGTDFTFTISSLQPEDIATYYCQQDYSSPWTFGGGTKVEIK
notes: humanized
B16: Hu286B4-9 (antibody, V domains shown)
VH: EVQLQESGPGLVKPSDTLSLTCAVSGYSISNNYYWNWIRQPPGKGLEWIGYITYDGSNNYNPSLKNRITMSRDTSKNQFSLKLSSVTAVDTAVYYCARGGGQLRFDYWGQGTTVTVSS
VL: DIQMTQSPSSLSASVGDRVTITCKASQSVSNEVTWYQQKPGKSPKMLIYYASNRYTGVPDRFSGSGYGTDFTFTISSLQPEDIATYFCQQDYSSPWTFGGGTKVEIK
notes: humanized
B17: Hu286B4-17 (antibody, V domains shown)
VH: EVQLQESGPGLVKPSDTLSLTCAVSGYSITNNYYWNWIRQPPGKGLEWMGYITYDGSNNYNPSLKNRITVSRDTSKNQFSLKLSSVTAVDTAVYYCTRGGGQLRFDYWGQGTTVTVSS
VL: DIQMTQSPSSLSASVGDRVTITCKASQSVSNEVTWYQQKPGKAPKMLIYYASNRYTGVPDRFSGSGSGTDFTFTISSLQPEDIATYYCQQDYSSPWTFGGGTKVEIK
notes: humanized

How the values were obtained:
[1] = biological target: T1, human 5T4-His protein; assay: ELISA, coated 5T4-His
Procedure: To evaluate the binding activity of clones, the 286B4 chimeric antibody along with 286B4 humanized mAbs were subjected to ELISA test.
Briefly, microtiter plates were coated with human 5T4-His protein at 1 μg/ml in PBS, 100 μl/well at 4° C. overnight, then blocked with 150 μl/well of 1% BSA. 4-fold dilutions of tested antibodies starting from 20 nM were added to each well and incubated for 1 hour at 37° C. The plates were washed with PBS/Tween and then incubated with Goat Anti-Human IgG-HRP for 30 mins at 37° C. After washing, the plates were developed with TMB substrate and analyzed by spectrophotometer at OD 450 nm. As shown in FIG. 16 and Table 15, most of the humanized clones bound to human 5T4 with high potency.

[2] = biological target: T1, human 5T4-His protein; assay: SPR Biacore, Protein A capture
Procedure: The binding of the 286B4 humanized antibodies to recombinant 5T4 protein (human 5T4-his tag) was tested with Biacore using a capture method. The mAbs were captured using Protein A chip. A serial dilution of human 5T4-his tag protein was injected over captured antibody for 3 mins at a flow rate of 30 μl/min. The antigen was allowed to dissociate for 280-800 s. All the experiments were carried out on a Biacore T200. Data analysis was carried out using the Biacore T200 evaluation software.

Row | Binder | EC50 [1] [nM] | Kd [2] [nM] | koff [2] [s⁻¹] | kon [2] [M⁻¹ s⁻¹]
1 | B1 | 0.68 | 1.08 | 0.000103 | 94600
2 | B2 | 0.57 | 1.12 | 0.000107 | 95500
3 | B3 | 1.76 |  |  | 
4 | B4 | 0.51 | 1.14 | 0.000107 | 93400
5 | B5 | 0.89 |  |  | 
6 | B6 | 0.25 | 1.04 | 0.000114 | 110000
7 | B7 | 0.46 |  |  | 
8 | B8 | 0.28 | 1.2 | 0.000128 | 106000
9 | B9 | 2.64 |  |  | 
10 | B10 | 0.42 |  |  | 
11 | B11 | 0.3 |  |  | 
12 | B12 | 0.27 |  |  | 
13 | B13 | 4.03 |  |  | 
14 | B14 | 1.42 |  |  | 
15 | B15 | 0.42 | 1.18 | 0.000133 | 113000
16 | B16 | 0.33 |  |  | 
17 | B17 | 0.71 |  |  | 
